Legend:
[1] = target: MBL-associated serine protease 2 (MASP2), serum-derived (human (endogenous in normal human serum))
[2] = target: MBL-associated serine protease 2 (MASP2), serum-derived (human (endogenous in normal human serum)); remark: listed apart in the source
[3] = target: MBL-associated serine protease 2 (MASP2), serum-derived (human (endogenous in normal human serum)); remark: listed apart in the source
[4] = target: MBL-associated serine protease 2 (MASP2), serum-derived (human (endogenous in normal human serum)); remark: listed apart in the source
[5] = target: neutrophil elastase (NE) from human leukocytes (human) (UniProt P08246)
[6] = target: serum-derived MBL-associated serine proteases (MASPs) (human (endogenous in normal human serum)); assay: ELISA; normal human serum diluted 1:10 in veronal buffer saline bound to mannan-coated plate (37°C, 2 h), washed; rLdISP1/rLdISP2 0-50 µM added, 37°C, 2 h; bound ISP detected with anti-ISP1 or anti-ISP2 antibody
[7] = target: serum-derived MBL-associated serine proteases (MASPs) (human (endogenous in normal human serum)); assay: ELISA; normal human serum diluted 1:50 in veronal buffer saline bound to mannan-coated plate (37°C, 2 h), washed; rLdISP1/rLdISP2 0-50 µM added, 37°C, 2 h; bound ISP detected with anti-ISP1 or anti-ISP2 antibody
[8] = target: serum-derived MBL-associated serine proteases (MASPs) (human (endogenous in normal human serum)); assay: ELISA; normal human serum diluted 1:100 in veronal buffer saline bound to mannan-coated plate (37°C, 2 h), washed; rLdISP1/rLdISP2 0-50 µM added, 37°C, 2 h; bound ISP detected with anti-ISP1 or anti-ISP2 antibody
[9] = target: C1 complex (C1qr2s2) (human) (UniProt P02745); assay: ELISA; C1 complex at 25 µg/ml bound to human IgM-coated plate (37°C, 2 h); rLdISP1/rLdISP2 0-50 µM added, 37°C, 2 h; bound ISP detected with anti-ISP1 or anti-ISP2 antibody; Kd taken as the free ligand at half saturation
[10] = target: C1 complex (C1qr2s2) (human) (UniProt P02745); assay: ELISA; C1 complex at 50 µg/ml bound to human IgM-coated plate (37°C, 2 h); rLdISP1/rLdISP2 0-50 µM added, 37°C, 2 h; bound ISP detected with anti-ISP1 or anti-ISP2 antibody; Kd taken as the free ligand at half saturation
[11] = target: C1 complex (C1qr2s2) (human) (UniProt P02745); assay: ELISA; C1 complex at 100 µg/ml bound to human IgM-coated plate (37°C, 2 h); rLdISP1/rLdISP2 0-50 µM added, 37°C, 2 h; bound ISP detected with anti-ISP1 or anti-ISP2 antibody; Kd taken as the free ligand at half saturation
[12] = target: C1 complex (C1qr2s2) (human) (UniProt P02745); assay: ELISA; C1 complex at 12.5 µg/ml bound to human IgM-coated plate (37°C, 2 h); rLdISP1/rLdISP2 0-50 µM added, 37°C, 2 h; bound ISP detected with anti-ISP1 or anti-ISP2 antibody; Kd taken as the free ligand at half saturation
[13] = target: C1 complex (C1qr2s2) (human) (UniProt P02745); assay: ELISA; C1 complex at 6.25 µg/ml bound to human IgM-coated plate (37°C, 2 h); rLdISP1/rLdISP2 0-50 µM added, 37°C, 2 h; bound ISP detected with anti-ISP1 or anti-ISP2 antibody; Kd taken as the free ligand at half saturation
[14] = target: C1 complex (C1qr2s2) (human) (UniProt P02745); assay: ELISA; C1 complex at 100 µg/ml bound to human IgM-coated plate (37°C, 2 h); rLdISP1/rLdISP2 0-50 µM added, 37°C, 2 h; bound ISP detected with anti-ISP1 or anti-ISP2 antibody; Kd taken as the free ligand at half saturation; remark: listed apart in the source

neutrophil elastase (NE) from human leukocytes (human), sequence (P08246 30-267): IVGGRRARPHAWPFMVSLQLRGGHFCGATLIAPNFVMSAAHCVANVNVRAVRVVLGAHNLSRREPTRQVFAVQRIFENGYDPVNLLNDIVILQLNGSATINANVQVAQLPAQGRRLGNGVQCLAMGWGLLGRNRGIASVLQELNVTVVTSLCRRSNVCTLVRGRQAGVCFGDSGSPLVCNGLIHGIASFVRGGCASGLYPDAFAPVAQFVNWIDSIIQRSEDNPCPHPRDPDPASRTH

recombinant L. donovani inhibitor of serine peptidases 2 (natural protein)
enzyme activity of serum-derived MASP2 (substrate Z-L-Lys-SBzl with DTNB), reduction against untreated serum at 5, 10 and 50 µM rLdISP2 (~30, ~44, ~60%) [1]: 60% | C4b formation (C4 cleavage by serum-derived MASPs on mannan plate, sandwich ELISA), fold decrease against control at 10 and 50 µM rLdISP2 (~2.1, ~2.9-fold) [2]: 2.9 fold | C3 convertase (C3c) formation by all complement pathways in human serum with promastigotes, fold reduction at 10 and 50 µM rLdISP2 (~1.5, ~2.5-fold) [3]: 2.5 fold | C3 convertase (C3c) formation by the lectin pathway (lectin pathway-specific serum), fold reduction at 10 and 50 µM rLdISP2 (~2, ~4-fold) [3]: 4 fold | C5 convertase (C5c) formation by all three pathways, fold reduction at 10 and 50 µM rLdISP2 (~1.5, ~2.9-fold) [3]: 2.9 fold | C5 convertase (C5c) formation by the lectin pathway, fold reduction at 10 and 50 µM rLdISP2 (~1.4, ~3.2-fold) [3]: 3.2 fold | MAC (C5b-9) formation on promastigotes via the lectin pathway, fold decrease against active LPSS at 10 and 50 µM rLdISP2 (~1.5, ~2.3-fold) [4]: 2.3 fold | complement-mediated lysis of promastigotes via the lectin pathway, fold reduction at 10 and 50 µM rLdISP2 (~1.8, ~2.5-fold) [4]: 2.5 fold | C5aR expression (western blot) in macrophages treated with NE pre-incubated with 10 µM rLdISP2, fold increase against control [5]: 2.5 fold | enzyme activity of NE (50 nM; substrate N-methoxysuccinyl-Ala-Ala-Pro-Val-AMC), reduction at 0.1, 1 and 10 µM rLdISP2 (~49, ~60, ~82%) [5]: 82% | Ka [6]: 830000 M⁻¹ | Kd [6]: 1.2 µM | Ka [7]: 520000 M⁻¹ | Kd [7]: 1.9 µM | Ka [8]: 330000 M⁻¹ | Kd [8]: 3 µM | Ka [9]: 350000 M⁻¹ | Kd [9]: 3 µM | Ka [10]: 500000 M⁻¹ | Kd [10]: 2 µM | Ka [11]: 760000 M⁻¹ | Kd [11]: 1.3 µM | Ka [12]: 310000 M⁻¹ | Kd [12]: 3.2 µM | Ka [13]: 280000 M⁻¹ | Kd [13]: 3.5 µM | Kd [14]: 1.6 µM

recombinant Leishmania donovani inhibitor of serine peptidases 1 (natural protein)
enzyme activity of NE (50 nM; substrate N-methoxysuccinyl-Ala-Ala-Pro-Val-AMC), inhibition at 10 µM rLdISP1 [5]: 27% | Ka [6]: 710000 M⁻¹ | Kd [6]: 1.4 µM | Ka [7]: 450000 M⁻¹ | Kd [7]: 2.2 µM | Ka [8]: 310000 M⁻¹ | Kd [8]: 3.2 µM

— article PMC5796892
